From US20210069342A1 (LEGOCHEM BIOSCIENCES, published 2021)

What was measured:
[1] = biological target: T1, human ROR1 expressed on the cell surface (human, UniProt Q01973 30-937); experiment: flow cytometry on H1437 cells (lung cancer), C2E3 IgG, FITC anti-human Fc detection
T1 construct: whole, on cells; also called cell surface-expressed ROR1 antigen; ROR1 on JeKo-1, Mino, CHO-human ROR1, MC38-human ROR1 and other cancer cell lines
Protocol: (§1) FACS analysis (FACSCalibur, BD Biosciences) was used to analyze the binding of the anti-ROR1 antibody of the present invention to ROR1 in the above cell lines.
(§2) Specifically, the respective cell lines were dissociated and washed in PBS, then the numbers of cells were counted and adjusted to 2×10⁵ cells/200 PBS. Then, they were treated with 10 /mL of the antibody of clone name C2E3 of the ROR1 monoclonal antibodies prepared in Embodiment 3, and reacted for 1 hour at 4° C. After the reaction, the cells were washed in PBS, then FITC-marked constant region (Fc) specific antibody (Goat anti-human IgG FITC conjugate, Fc specific, Sigma, F9512, concentration 20 mg/ml) was suspended in 2 /1×10⁵ cells/200 PBS and reacted for 1 hour at 4° C. After reacting, the cells were washed with PBS and analyzed with the FACSCalibur equipment. The negative control was only treated with FITC-marked constant region (Fc) specific antibody. To compare the degree of ROR1 expression among the respective cancer cell lines, the quotient of dividing the shifted readings for the experimental group treated with the ROR1 monoclonal antibody (C2E3) of the present invention by the shifted readings for the control group (MFI Ratio: MFI of anti-ROR1/MFI or 2nd Ab) is indicated.

[2] = biological target: T1, human ROR1 expressed on the cell surface; experiment: flow cytometry on H460 cells (lung cancer), C2E3 IgG, FITC anti-human Fc detection
Protocol: as §1, §2

[3] = biological target: T2, recombinant human ROR1-His (Sino Biological, 13968-H08H) (human, UniProt Q01973 30-406); experiment: ELISA, wells coated with human ROR1 protein (sheet: 'human ROR1'; text: ROR1-Fc or ROR1-His), IgG titrated, HRP anti-Fab detection, OD (450-650nm)
T2 construct: extracellular domain; Bought protein; also called ROR1-HIS protein; not shown: His tag

[4] = biological target: T1, human ROR1 expressed on the cell surface; experiment: flow cytometry on HCC1937 cells (breast cancer), C2E3 IgG, FITC anti-human Fc detection
Protocol: as §1, §2

[5] = biological target: T2, recombinant human ROR1-His (Sino …); experiment: BLI (Octet), ROR1-His on Anti-Penta-His or AR2G biosensor, IgG 30 to 0.021 nM, 1:1 fit
[6] = biological target: T1, human ROR1 expressed on the cell surface; experiment: flow cytometry on MCF7 cells (breast cancer; the text calls MCF7 a cell line which does not express ROR1), C2E3 IgG, FITC anti-human Fc detection
Protocol: as §1, §2

[7] = biological target: T1, human ROR1 expressed on the cell surface; experiment: flow cytometry on NCI-N87 cells (gastric cancer), C2E3 IgG, FITC anti-human Fc detection
Protocol: as §1, §2

[8] = biological target: T1, human ROR1 expressed on the cell surface; experiment: flow cytometry on Mino cells (MCL), C2E3 IgG, FITC anti-human Fc detection
Protocol: as §1, §2

[9] = biological target: T1, human ROR1 expressed on the cell surface; experiment: flow cytometry on NCI-H1975 cells (lung cancer), C2E3 IgG, FITC anti-human Fc detection
Protocol: as §1, §2

T1 sequence (Q01973 30-937): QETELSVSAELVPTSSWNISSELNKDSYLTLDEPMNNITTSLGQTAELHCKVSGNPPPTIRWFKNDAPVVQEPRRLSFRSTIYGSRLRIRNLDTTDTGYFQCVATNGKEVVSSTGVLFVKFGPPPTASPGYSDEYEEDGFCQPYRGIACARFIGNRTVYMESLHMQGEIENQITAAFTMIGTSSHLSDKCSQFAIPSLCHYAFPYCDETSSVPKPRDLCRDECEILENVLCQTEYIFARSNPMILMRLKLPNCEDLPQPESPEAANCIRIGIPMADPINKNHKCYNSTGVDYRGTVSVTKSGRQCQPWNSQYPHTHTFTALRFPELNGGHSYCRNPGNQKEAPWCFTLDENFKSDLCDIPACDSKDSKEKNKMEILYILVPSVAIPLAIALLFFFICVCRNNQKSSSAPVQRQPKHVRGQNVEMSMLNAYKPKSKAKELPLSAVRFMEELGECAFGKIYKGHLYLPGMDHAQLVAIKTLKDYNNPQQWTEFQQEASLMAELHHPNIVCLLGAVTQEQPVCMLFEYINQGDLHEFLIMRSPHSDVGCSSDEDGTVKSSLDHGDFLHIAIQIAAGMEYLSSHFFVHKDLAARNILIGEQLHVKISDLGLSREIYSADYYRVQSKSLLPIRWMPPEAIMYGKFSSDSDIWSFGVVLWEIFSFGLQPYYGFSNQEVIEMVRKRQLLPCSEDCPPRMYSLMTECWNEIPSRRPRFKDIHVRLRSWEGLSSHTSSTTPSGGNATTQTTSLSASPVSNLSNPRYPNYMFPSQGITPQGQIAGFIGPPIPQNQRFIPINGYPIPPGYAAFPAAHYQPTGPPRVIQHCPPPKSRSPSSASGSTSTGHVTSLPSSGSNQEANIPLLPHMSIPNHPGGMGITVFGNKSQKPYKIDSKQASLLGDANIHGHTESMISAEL
T2 sequence (Q01973 30-406): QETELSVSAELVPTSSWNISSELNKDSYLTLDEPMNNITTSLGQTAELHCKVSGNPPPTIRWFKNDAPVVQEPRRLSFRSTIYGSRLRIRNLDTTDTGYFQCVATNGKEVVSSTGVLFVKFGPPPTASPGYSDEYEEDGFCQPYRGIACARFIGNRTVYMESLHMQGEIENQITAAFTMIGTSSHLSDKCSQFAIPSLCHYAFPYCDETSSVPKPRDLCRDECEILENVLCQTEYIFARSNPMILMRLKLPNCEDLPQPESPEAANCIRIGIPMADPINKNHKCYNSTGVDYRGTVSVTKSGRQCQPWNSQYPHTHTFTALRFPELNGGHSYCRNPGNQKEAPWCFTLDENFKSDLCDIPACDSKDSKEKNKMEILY

- Mean Fold Ratio (MFI of anti-ROR1 / MFI of 2nd Ab) [1]: 4.1
- Mean Fold Ratio (MFI of anti-ROR1 / MFI of 2nd Ab) [2]: 10.9
- EC50 (read off the curve) [3]: ~0.2 nM
- Mean Fold Ratio (MFI of anti-ROR1 / MFI of 2nd Ab) [4]: 2.7
- kon [5]: 5.46e+06 M⁻¹ s⁻¹
- Mean Fold Ratio (MFI of anti-ROR1 / MFI of 2nd Ab) [6]: 1.1
- Mean Fold Ratio (MFI of anti-ROR1 / MFI of 2nd Ab) [7]: 11.8
- Mean Fold Ratio (MFI of anti-ROR1 / MFI of 2nd Ab) [8]: 7.2
- Mean Fold Ratio (MFI of anti-ROR1 / MFI of 2nd Ab) [9]: 4.2
B1: anti-ROR1 IgG antibody C2E3 (antibody, V domains shown)
VH: EVQLLESGGGLVQPGGSLRLSCAASGFTFSNYAMSWVRQAPGKGLEWVSSISHNSGSTYYADSVKGRFTISRDNSKNTLYLQMNSLRAEDTAVYYCAKFISARKSLGRSYSNGMDVWGQGTLVTVSS
VL: QSVLTQPPSASGTPGQRVTISCTGSSSNIGSNDVTWYQQLPGTAPKLLIYADSKRPSGVPDRFSGSKSGTSASLAISGLRSEDEADYYCGTWDYSLSGYVFGGGTKLTVLG
notes: Full IgG form (human IgG1 constant region, lambda light chain), expressed in CHO-S cells
